In the DeepSol protein solubility set:

Assay: soluble on expression in E. coli; label from the status in PepcDB or PDB records

Sequence | soluble on expression in E. coli
MAHHHHHHMDKGCSDCFFACHRYENWIDNQKEQFLKQRGEYENVINGTSSSSSSVGGKRQTRRTRSISSDDNGYESKFYKKLKERGYSEVKNFFEKLNKEKECQNFDDKGGEFDFNEHVDKDKEYKGTFYHSKYCEVCPGCGVKRDGNDWKEKSGGRCTRKKRYKILDDNNFNGIDVLSFGDKRNEIKQKIDTFCGGSNEEKEKLKEQWKCYEAQYVKEDKKEDEEDEDEVEEEDDLKDAGGLCTLQNKKK | not soluble
MAHHHHHHMDLNDFLRNTKTAAQDGSAGVRTLLSGHKRFADTNEASAEASSSGAGASGKRPRRSGTAEGLNIRAAQEALAQERGNTSAQAQQQRAQAELLSEQAAARMVHQVLEYVMQVELGGRHNAAKGGIAPFVPSAAQLAAEKAMWTPAAGYVIHHVVPATLDTSPHTLESLMSVTEKERVPDGVRALRGTLQVFDTERDLVGGVRTGMAPHLRTHVLEVLEKGLHGRAWLRDDAAVATQISALGKPTTPDKGPSSVLLFGDLATASVANSDATSSARDTASAGDEASKPRSKGFSLAAFLNGNDPTSSSSDGEDP | not soluble
MAHHHHHHMDLVQLQRILSTHDERVVKVFVNHIPEVGLRKIDDCVLEYMLKMLEGQTSSESYLPEEIIEETMKLYFREFDVFSDSEEKLNKSTAAICQQMLKEGITKKPSEESSRLASAVNIGRQYEESLKRATMIKSVGKVTTANTNEDWTWETKRSAAKDMRKKRREDEKKAILAEEYEAFLRKRGISNTTAVTKIHHKGEGTNYSTDIRCEAIHIQLGKQVLLDDTDLVLLTGHKYGLIGRNGAGKTTLLRALAERELEGVSPFMQILHVEQEIVAGAETPLEVLLATDVERAQLLHEEQELLKQNDTEANTRLNEVYARLDAIDAHSAEARAATILHGLSFTQDMMTSPTKQLSGGWRMRVALARALFVEPDVLLLDEPTNHLDLFAVLWLEQFLRDWQKTLIVVSHSRTFLNNVCSEIIHLIGHHLHYYNGNYDQFEITRVEQERQQKKQHAAQEKQRAHIQAFIDKFRYNANRAKMAQSRIKALERMEMVADVVTDPQFAFTFPDAEPVSGSFIEMVDCEFGYKPGVSLFKDVNMGIDESSRIVLVGANGVGKSTFMNVCTGALEPRSGTVVRNKKIRVAHFAQHNMESLTPQLSSLEFLRSKFPHMEDQQLRAHLGSMGLSGERALQPIYTLSGGQKSRLVLAWITFQKPHLLLLDEPTNHLDIDTVNALIEALLAYNGGLLVISHDEYFITSLCDDIFVCEDNTVKKFDGDFAEYRKHVVKMMK | soluble
MAHHHHHHMDTNDYENLRFYNYIPVNKELKKSCIPCPDTEDYEAKLNKEFDEELTKVFQGNILDQINAKDINADLKRDLKKKLDILSKKTDKAVVQLIKQKINENKNKENITNTNDDEKEKETMTLNFDKKGDKNFGHVLYKTLDKLDVMDDESD | soluble
MAHHHHHHMECGYRNEGKFHQVVLNIKEKIEKHDLSKWKDIVKPEEGPKYDEYFERLLRGGTPEKDSHEEDSNEKHTHETHDLPAEQAEETPPEVCEPPGDEKNKTEFQLNKEFFDKISNKEKFYFLLNIKEMMETSWLLAQKRLEGIKLEEKSKPVNVQDLLNYSQKIADTTCAPPECDNINDKIMHQEYYPNYHFLNFVNVEEIHLSKLFQLQKYSTVCFPPIITIQEGKDNMLAIDITCSTPHATIYYRMNDDPNEQIYNTDDKPQIRKRKKVNVYAWSVKDGHIKSRVSCISKSYKVEEDDSFPLSDNLPNKEQGEQQTGSSKMGVEANAPGKPSQITNVFKNLGFLLSRKKEKTEEPSSNGESSSEG | not soluble
MAHHHHHHMEDAYAGLCSQSVFEPKMDFTLCINKSIKLFLKDINISKYDKNNVDNKKDVNTSDTKVIETSNDQNQNNQNDQNDQQSDILNNQHLLKENEAFLNGYLYFSRIGHNINLLLNELSSIKKDFRFLNKETRKKIKKFKQVKNKNIIYKDLLQDIKEKRKRKEIYEKLSIEIKKLDEVKKVQEKQKIEKDEINNLEHKILNIENIIKSNNDHIQETINQINKIVSENIQI | not soluble
MAHHHHHHMEPNADEPKKTSSVRQLLRQQRELQEMRKFGLAPLAVDTETHQEISPNIPEFISRAPWYYGATGPTLVHQRKQGDSATEVSDEVLDEKVDRIVVKGQASRFTAGACKNCGSRTHKTSECFQAKKKVGSVYTNRVTGSDIETHQEAKTYSQKRDRFVGEVGIDLMRGVRQDQQDDNVDVAAPATARHRPEDVFGSRTAQHGGVEVKELPKYLHNLDQQDGLFFDPKTGSMRANPNSGDSTKAFRGDLERYRTGDYYNYVESQYRFLTGQSRSFVDFEFDDAMRRAREQQQEPQQQEQNSTRGPVTKVLTETPQDVLLRSLYGASQPKFDSDVLPSFTTESKTSAPSSSPAPPVDALATTATATVTAHSSVQAASLSWVTTRNGHAAVYGSYFDPIHFRWGYACCKRMGKDTTGCSATHA | soluble
MAHHHHHHMEQFLNQVAASNKTVKCIKGALQIYDTYGEVFSLVHERRYEEAGIICTHFSDHIGQLFLGTTDGNCLVYYHDERSGDEQRSGVEERSGDDLYGDADRCGVPPVGRKKKGGVLEYLHKGVKRKRERASFYTNSEHIYNLDSLPKEIKITDAGDVLIKKDLINAKVKMNPKLSSFTANAYEKKRQVGMYSKYIVDANPSGKDPSSSQTNKGNEYEEEDIVEKLRKREQSKQGGDYFMNAYKYTQPSAIIDYSSGEEQEYSQLLKKPKCPQCGVKNCVCGFMRSGGRRAR | not soluble
MAHHHHHHMERAHGAKDGGSKTLFVTVGSHQFDDLIKQIDTKDFHSFLRRAGFAKMSMQIGQGTYEPQLIYRCSGNGEESLLKRVKFFRYKKDLLKDFQKADLIVSHAGAGTTLEGLRMKKKMLIVVNDKLMGNHQLEFAEFLRSRNYLEVCECLGDLRAHVLRCLRTPAFAPFPAPRPEPFLRDLRALMDGAA | soluble
MAHHHHHHMFCFSRGLWMRHIGQDVPKRHTHFVLESRLMYEKSFRDCWLHSVCRAISQLDEPLSKTVVGTHQKMLQRKVTCFQYNQYGLFKTPYYRLANVDRYHAVQGVAGTREWVPYVNVSYWTMNKMVRGGNLLVHRVHYTGWGTDSHLKKGGWEHRWNKVLQRNVLQYSRI | not soluble
MAHHHHHHMFCNLNVCLAFLSSQYGKENMNARKPLAVSAGTNSRSGEGDWKSTMRSFREGVRCLGEENEALRTVRSDLDAISRKLTEKMNSLVEENGSFHKSMSTLLDDERRKVSIITDQNENLLHKLEELRKEYDDANKEISRLTDLVHTEKSRNNSVVGLFEKKLAEKEDEYQTELRLREQSLEKLKTQLEEKCSAYEAQLTDRDNLLQTERCQWKLQKEVYEKEIERLLSQVGKFAITQRSSSQQSTLGVDVAHAKPPLAPVPPPAPTDEEGDRAVVKKRRLEAVRQQRRLKENDKNDI | not soluble
MAHHHHHHMFRAARLLRGVSPFSVFLMDQKNNPSLQGVSIAKRGKMLSKMYKELSQQQRRDLQKRAEVHPSLRKSKRARPPRKTEFAEFVRQNYKVVQGLNYRKRFSALSQLYELHKPIEVQVTKALKEAKAKKVTSAKTAVKKAATKSKTAKRAKGGKSTPKKSTGKK | soluble
MAHHHHHHMGADIKLLLIDFDGTLFVDKDIKVPSENIEAIKEAIEKGYMVSICTGRSKVGILSAFGEENLKKMNFYGMPGVYINGTIVYDQIGYTLLDETIETDVYAELISYLVENNLVNQTIFHRGESNYVTEDNKYSDFLQKMYSENRSIIIRHNEMLKYRTMNKLMIVLDPSESKTVIGNLKQKFKNKLTIFTTYNGHAEVNKLGHDKYTGINYLLKHYNISNDQVLVVGDAENDIAMLSHFKYSFAVANATNSAKSHAKCVLPLSHKEGAVAYLLKKVFDLKK | not soluble
MAHHHHHHMGAVDYEVNETHLTGAQALSDYLLDTWYVHDMPRYGAVSCIDRNVTALLRFADEWRGTNVNVFLYNSSSHHQAGLSLATYYDLFIKSFLGRDSAFMRYEAELFNEPASQSQLGFIFIGAPGGRSAGGLPGRAVGRHGPCGAARGVDCDPARRRALLRCADDAPPGGGGGACEHCGDHGARVRAVCRRQGTPEEQVRQRLRGERAAGVGAARGALCVVHAGGVPRRCAERRRGSAVRVPAAARSRLR | not soluble
